US20190270826A1 (Janssen / Centocor, published 2019)

Legend:
[1] = target: T1, human IL1RAP on cells (endogenous) (human, UniProt Q9NPH3 21-570); experiment: cell-based or functional assay
T1 sequence (looked up): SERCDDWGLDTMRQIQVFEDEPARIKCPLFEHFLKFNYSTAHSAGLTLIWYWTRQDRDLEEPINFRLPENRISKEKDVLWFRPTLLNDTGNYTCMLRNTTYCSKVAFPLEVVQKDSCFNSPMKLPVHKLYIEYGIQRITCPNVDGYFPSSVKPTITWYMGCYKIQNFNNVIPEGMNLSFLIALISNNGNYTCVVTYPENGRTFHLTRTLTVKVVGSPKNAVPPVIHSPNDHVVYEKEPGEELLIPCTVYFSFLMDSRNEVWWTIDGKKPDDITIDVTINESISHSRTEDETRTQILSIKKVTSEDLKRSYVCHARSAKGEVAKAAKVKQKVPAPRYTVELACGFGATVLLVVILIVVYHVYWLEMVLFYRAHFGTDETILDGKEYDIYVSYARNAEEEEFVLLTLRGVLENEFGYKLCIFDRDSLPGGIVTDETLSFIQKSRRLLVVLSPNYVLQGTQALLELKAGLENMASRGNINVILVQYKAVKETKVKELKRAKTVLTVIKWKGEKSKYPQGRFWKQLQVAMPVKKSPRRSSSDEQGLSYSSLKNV

[2] = target: T2, rat IL1RAP ECD displayed on HEK-293F cells (pDisplay) (rat, UniProt Q63621 21-367); experiment: MSD cell binding, HEK-293F Rat clone 1 cells displaying rat IL1RAP ECD
T2 sequence: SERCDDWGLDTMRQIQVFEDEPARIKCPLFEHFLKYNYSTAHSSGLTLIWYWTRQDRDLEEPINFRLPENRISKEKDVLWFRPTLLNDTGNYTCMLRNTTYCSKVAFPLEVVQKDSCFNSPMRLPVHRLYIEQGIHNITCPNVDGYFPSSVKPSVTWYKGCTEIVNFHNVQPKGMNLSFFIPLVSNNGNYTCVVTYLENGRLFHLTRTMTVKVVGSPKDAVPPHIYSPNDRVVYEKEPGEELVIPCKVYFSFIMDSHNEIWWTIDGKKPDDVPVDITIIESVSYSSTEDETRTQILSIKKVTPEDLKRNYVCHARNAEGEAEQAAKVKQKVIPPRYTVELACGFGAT
Experimental: (§1) Cells were immobilized and IL1RAP antibody samples were assayed in triplicate. Briefly, expression supernatants of purified IL1RAP antibodies were normalized to 10 μg/mL. 5000 cells per well were plated into a 384 well plate (MA6000, cat. L21XB, MSD) and allowed to adhere for 2 hr. Cells were then blocked with 20% FBS in PBS (Gibco) for 15 mins. Antibody supernatants were then added and left at RT for 1 hr. Cells were washed 3 times with PBS and a ruthenium labeled secondary antibody (Mesoscale Discovery) was then added at 2 μg/mL and incubated for 1 hour at room temperature. A further washing step was then applied and 35 μL per well of 2×MSD Read buffer T (surfactant free) was then added and incubated for 5-30 minutes for detection. Plates were then read using Sector Imager 2400 (MSD). Data was normalized to controls and graphed using GraphPad Prism Version 5. A positive binder was determined to be a hit with a signal 3× greater than parental cell line background.
(§2) The MSD cell binding assay described in Example 4 was used to assess IL1RAP binding.

[3] = target: T3, mouse IL1RAP ECD displayed on HEK-293F cells (pDisplay) (mouse, UniProt Q61730 21-367); experiment: MSD cell binding, HEK-293F Mouse clone 5 cells displaying mouse IL1RAP ECD
T3 sequence: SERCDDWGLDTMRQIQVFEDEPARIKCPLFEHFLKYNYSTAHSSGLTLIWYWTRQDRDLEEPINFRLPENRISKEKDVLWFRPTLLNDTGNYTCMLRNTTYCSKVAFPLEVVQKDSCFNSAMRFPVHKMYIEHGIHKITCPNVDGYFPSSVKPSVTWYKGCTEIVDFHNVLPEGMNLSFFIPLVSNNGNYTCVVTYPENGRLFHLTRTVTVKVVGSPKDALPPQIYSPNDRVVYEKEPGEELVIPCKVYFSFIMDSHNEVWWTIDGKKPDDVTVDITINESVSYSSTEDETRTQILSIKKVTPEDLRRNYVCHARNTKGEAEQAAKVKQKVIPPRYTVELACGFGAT
Experimental: as §1, §2

human FcRn = target: T4, human FcRn (human, UniProt P55899 24-297; P61769 21-119, limits assumed); experiment: AlphaScreen competition, human FcRn (n=1); displaced: biotinylated control mAb B21M WT IgG1 (m27); pH 6.0
T4 construct: GST-tagged
Description: Measurements were made using an AlphaScreen™ assay (Amplified Luminescent Proximity Homogeneous Assay (ALPHA), PerkinElmer, Wellesley, Mass.), a bead-based luminescent proximity assay. Laser excitation of a donor bead excites oxygen, which if sufficiently close to the acceptor bead generates a cascade of chemiluminescent events, ultimately leading to fluorescence emission at 520-620 nm.

B1: IC3B19 (bispecific antibody, human IgG4 S228P, kappa, lambda, F234A L235A)
heavy 1: EVQLVESGGGLVQPGGSLRLSCAASGFTFNTYAMNWVRQAPGKGLEWVARIRSKYNNYATYYAASVKGRFTISRDDSKNSLYLQMNSLKTEDTAVYYCARHGNFGNSYVSWFAYWGQGTLVTVSSASTKGPSVFPLAPCSRSTSESTAALGCLVKDYFPEPVTVSWNSGALTSGVHTFPAVLQSSGLYSLSSVVTVPSSSLGTKTYTCNVDHKPSNTKVDKRVESKYGPPCPPCPAPEAAGGPSVFLFPPKPKDTLMISRTPEVTCVVVDVSQEDPEVQFNWYVDGVEVHNAKTKPREEQFNSTYRVVSVLTVLHQDWLNGKEYKCKVSNKGLPSSIEKTISKAKGQPREPQVYTLPPSQEEMTKNQVSLTCLVKGFYPSDIAVEWESNGQPENNYKTTPPVLDSDGSFLLYSKLTVDKSRWQEGNVFSCSVMHEALHNHYTQKSLSLSLGK
light 1: QTVVTQEPSLTVSPGGTVTLTCRSSTGAVTTSNYANWVQQKPGQAPRGLIGGTNKRAPGTPARFSGSLLGGKAALTLSGVQPEDEAEYYCALWYSNLWVFGGGTKLTVLGQPKAAPSVTLFPPSSEELQANKATLVCLISDFYPGAVTVAWKADSSPVKAGVETTTPSKQSNNKYAASSYLSLTPEQWKSHRSYSCQVTHEGSTVEKTVAPTECS
heavy 2: not shown
light 2: DIQLTQSPSFLSASVGDRVTITCRASQGISSYLAWYQQKPGKAPKLLIYAASTLQSGVPSRFSGSGSGTEFTLTISSLQPEDFATYYCQQVNSYPLTFGGGTKVEIKRTVAAPSVFIFPPSDEQLKSGTASVVCLLNNFYPREAKVQWKVDNALQSGNSQESVTEQDSKDSTYSLSSTLTLSKADYEKHKVYACEVTHQGLSSPVTKSFNRGEC
notes: IgG4-PAA, Fab arm exchange; also called IAPB57 x CD3B219; IL1RAP x CD3
- Average EC50, SKNO-1 cytotoxicity in whole blood, 24 hour [1]: 1.82 nM
- Average EC50, SKNO-1 cytotoxicity in whole blood, 48 hour [1]: 1.4 nM
- EC50, SKNO-1 cytotoxicity in whole blood, donor 00201, 24 hour [1]: 3.58 nM
- EC50, SKNO-1 cytotoxicity in whole blood, donor 00201, 48 hour [1]: 0.703 nM
- EC50, SKNO-1 cytotoxicity in whole blood, donor 00263, 24 hour [1]: 1.5 nM
- EC50, SKNO-1 cytotoxicity in whole blood, donor 00263, 48 hour [1]: 0.768 nM
- EC50, SKNO-1 cytotoxicity in whole blood, donor 27050, 24 hour [1]: 1.38 nM
- EC50, SKNO-1 cytotoxicity in whole blood, donor 27050, 48 hour [1]: 3.36 nM
- EC50, SKNO-1 cytotoxicity in whole blood, donor 27060, 24 hour [1]: 1.88 nM
- EC50, SKNO-1 cytotoxicity in whole blood, donor 27060, 48 hour [1]: 1.3 nM
- EC50, SKNO-1 cytotoxicity in whole blood, donor 27067, 24 hour [1]: 0.912 nM
- EC50, SKNO-1 cytotoxicity in whole blood, donor 27067, 48 hour [1]: 0.647 nM
- EC50, SKNO-1 cytotoxicity in whole blood, donor 32771, 24 hour [1]: 1.68 nM
- EC50, SKNO-1 cytotoxicity in whole blood, donor 32782, 48 hour [1]: 1.62 nM
- binding result [2]: no binding (tested: 100 µg/mL)
- binding result [3]: no binding (tested: 100 µg/mL)
- IC50 (read off the curve) (human FcRn): ~200 nM
